Reference: the supplement of paper PMC10724198
± gives the standard deviation of the averaged measurements.

System: Saccharomyces cerevisiae
Assay: protein stability index of tFT-peptide fusion (C-terminal peptide) (PSI (0-1 scale)); higher = more stable (slower turnover)
Conditions: genetic background: wild type; temperature: 30 C
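Note: PSI is a weighted mean of sequencing reads over stability bins, variants kept only with over 10 reads, mCherry proximal and sfGFP distal, peptide attached via GGGS linker.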

| Sequence | protein stability index |
| --- | --- |
| LRSPGSHIVRLT | 0.569 ± 0.035 |
| LFALRLLSREGI | 0.604 ± 0.046 |
| HSRTLTQKKTNN | 0.715 ± 0.038 |
| SLLHGVFFWVLT | 0.572 ± 0.013 |
| KKKKNKKNKRKN | 0.613 ± 0.034 |
| KVHVILTGKYEI | 0.7012 ± 0.0025 |
| PPPRSPPFPSPL | 0.689 ± 0.042 |
| RNRNKKIIREKK | 0.7 ± 0.033 |
| SSSYCHPSCVSC | 0.661 ± 0.14 |
| LGGGGKNGSERV | 0.696 ± 0.017 |
| RLFTLVPIGPFM | 0.704 ± 0.055 |
| PPPPPPGHLPRL | 0.76 ± 0.05 |
| DICCGLCGLLPR | 0.658 ± 0.079 |
| HPSPPAPAPLYP | 0.667 ± 0.11 |
| SPPPSSSPPPSP | 0.612 ± 0.03 |
| GGGGGGGGGAGG | 0.674 ± 0.023 |
| AGARPEGPRWGE | 0.703 ± 0.021 |
| RALPSPRSPLSI | 0.616 ± 0.041 |
| MSMVVCHGGGGL | 0.663 ± 0.017 |
| VCAGGVFRLARG | 0.66 ± 0.12 |
| HHIAYTALSVWS | 0.663 ± 0.011 |
| TPPHNRERPTVQ | 0.657 ± 0.03 |
| TSSSDCRSPAPP | 0.744 ± 0.038 |
| GRRWGGERVREG | 0.66 ± 0.015 |
| NINNKRNHIHLK | 0.648 ± 0.075 |
| NGCCLVHAETGP | 0.676 ± 0.032 |

| Sequence | protein stability index |
| --- | --- |
| SGVFARIKRTVV | 0.489 ± 0.072 |
| IESVGRTTRQGE | 0.748 ± 0.11 |
| AGESPDLSARCG | 0.661 ± 0.11 |
| TAGAYSLSTGNH | 0.651 ± 0.024 |
| ALLRSLSSLPLV | 0.602 ± 0.011 |
| ASSFVGLRWWAG | 0.722 ± 0.012 |
| GPPPLPSPPSHP | 0.753 ± 0.1 |
| SPQRAHLHHHPT | 0.654 ± 0.026 |
| ARASPPARRSPT | 0.673 ± 0.058 |
| LPSAPLLPLLRP | 0.68 ± 0.041 |
| LIVIGGGAVNGV | 0.63 ± 0.069 |
| SVGGILWLMLEG | 0.677 ± 0.044 |
| STRTNPSYFTYQ | 0.675 ± 0.013 |
| PPPRPPALPPLP | 0.69 ± 0.016 |
| VLKVFIRERRVR | 0.703 ± 0.081 |
| GGGGGRAQEVQG | 0.717 ± 0.059 |
| VIEWFVRGRGGG | 0.693 ± 0.01 |
| GRKRWVRLSLAC | 0.563 ± 0.028 |
| PGFEPHLKLCAA | 0.654 ± 0.042 |
| KRSARRAGRATP | 0.761 ± 0.14 |
| AVTRLQPVMRAV | 0.6804 ± 0.0054 |
| NGMVDDQSEVNR | 0.682 ± 0.074 |
| CLLRPTPRPATP | 0.779 ± 0.036 |
| KTNNQVDTSVKD | 0.645 ± 0.054 |
| YRCVQKEIVQRY | 0.693 ± 0.056 |
| EPAWVNDQKERS | 0.832 ± 0.029 |

| Sequence | protein stability index |
| --- | --- |
| PSPRSGPPLASP | 0.6896 ± 0.0012 |
| GTRVGRARGGRK | 0.835 ± 0.047 |
| TKKKTTNKIIKI | 0.671 ± 0.054 |
| RLETKNITRKHI | 0.681 ± 0.018 |
| CQRHGTKIHRRR | 0.736 ± 0.053 |
| GDLGPADRQPAG | 0.639 ± 0.027 |
| CVGFCLGKCTMS | 0.732 ± 0.014 |
| PHYLPHAPHGAL | 0.704 ± 0.037 |
| PLRPGILLNKLP | 0.646 ± 0.046 |
| LRGACWLARTRT | 0.677 ± 0.018 |
| PPFTARPATLAR | 0.565 ± 0.017 |
| ASVCASCYTGGF | 0.665 ± 0.03 |
| GAGFCSGLRGAG | 0.689 ± 0.088 |
| STLSSRLSLPYR | 0.728 ± 0.07 |
| PRTRLPPQLRLP | 0.694 ± 0.02 |
| AWESVGVWWGDS | 0.76 ± 0.043 |
| RSVQSATSHGYQ | 0.749 ± 0.15 |
| LSYCVGFFSLVG | 0.6459 ± 0.0012 |
| LGGGAGAGYWVG | 0.741 ± 0.032 |
| LRLLYGYWGKFL | 0.547 ± 0.0072 |
| ESRGVRAGTWQG | 0.694 ± 0.05 |
| WWEGSFRVGAVR | 0.638 ± 0.008 |
| GTDRRGRDAPHS | 0.586 ± 0.031 |
| PCLSRPSTPPSS | 0.674 ± 0.036 |
| YTMGGSLSVSLD | 0.817 ± 0.16 |
| EHKRQRPVTRLP | 0.672 ± 0.016 |

| Sequence | protein stability index |
| --- | --- |
| YADTCEGDNLTS | 0.661 ± 0.03 |
| HTSKFKKQRKKR | 0.7975 ± 0.0022 |
| PPPCPPPRRHPP | 0.605 ± 0.022 |
| PPRLHPNTPPLL | 0.765 ± 0.08 |
| SIIRYNKSATIT | 0.667 ± 0.047 |
| YLCVLASLSSTF | 0.591 ± 0.022 |
| GIQAGGGGGKGG | 0.676 ± 0.022 |
| TLARLISGKRLL | 0.648 ± 0.022 |
| PRTPAPAPTPRP | 0.682 ± 0.017 |
| TLVLQFGRKRFG | 0.629 ± 0.013 |
| PPSPARFPPPSS | 0.632 ± 0.015 |
| PLSDRGGRFPML | 0.7 ± 0.053 |
| GVKMVHERHNRV | 0.665 ± 0.057 |
| SSGKRANINKNK | 0.695 ± 0.022 |
| LQHRHSTSPRPT | 0.657 ± 0.037 |
| GSSQGCLICSIA | 0.649 ± 0.049 |
| SSRLVFFLPSLR | 0.6966 ± 0.0022 |
| YIHQRKGRKPNE | 0.622 ± 0.057 |
| VWGGGSWGGCGG | 0.744 ± 0.082 |
| GLLENLKKRSRG | 0.691 ± 0.07 |
| LFVGCRDPLCGV | 0.723 ± 0.00029 |
| PRLCLVAGRCRS | 0.614 ± 0.04 |
| LEGGWRVGGGRL | 0.683 ± 0.015 |
